Positions count from the first letter of the chain named.
B1: mAb15162 (antibody, V domains shown)
VH: EVQLVETGGGLIQPGGSLRLSCAASEFIVSRNYMSWVRQAPGKGLEWVSLIYSGGSTYYADSVKGRFTISRDNSKNILYLQMNSLRAEDTAVYYCARDRGGISDYWGQGTLVTVSS
VL: DIQMTQSPSSLSASVGDRVTITCQASQDINKYLNWFQQKPGKAPKLLIYDASNLETGVPSRFSGSGSGTDFTFTISSLQPEDIATYYCQQYDNLPRTFGQGTKLEIKR
B2: mAb14232 (antibody, V domains shown)
VH: QITLKESGPTLVKPTQTLTLTCTFSGFSLSASGVGVGWIRQPPGKALEWLALIYWDDDKRYSPSLKSRLTITKDTSKNQVVLTMTNMDPVDTATYYCAQHKVATIFDYWGQGTLVTVSS
VL: QSALTQPPSASGSPGQSVTISCTATSSDVGNYNYVSWYQQHPGKAPKLMIYEVTKRPSGVPDRFSGSKSGNTASLTVSGLQAEDEADYYCSSYAGSWGVFGGGTKLTVLG
B3: mAb14234 (antibody, V domains shown)
VH: QVQLVESGGGVVQPGRSLRLSCAASGFTFSSYGIHWVRQAPGKGLEWVAIIWYDGSEKYYADSVKGRFTISRDNSKNTLFLQMNSLEAEDTAVYYCARGPDLLTGYYNYFYYGMDVWGQGTTVTVSS
VL: QSVLTQPPSVSGAPGQRVTISCTGSSSNIGIGYDVHWYQQLPGTVPKLLIYGNTNRPSGVPDRFSGSKSGTSASLAITGLQAEDEADYYCQSYDSSLSSYVFGTGTKVTVLG
B4: mAb15157 (antibody, V domains shown)
VH: EVQLVESGGALVQPGGSLRLSCAASGFPFTIYAMTWVRQAPGKGLEWVSVITGSGDSTYYADSVKGRFTISRDNSKNTLYLQMNSLRAEDTAVYYCVKTGEGFFYYYYGMDVWGQGTTVTVSS
VL: QSVLTQPPSVSAAPGQKVTISCSGSSSNIGNSYISWYQQLPGTAPKLLIYVNNKRPSGIPDRFSGSKSGTSATLGITGLQTGDEADYYCGTWDSSLSAGVFGSGTKVTVLG
B5: mAb15160 (antibody, V domains shown)
VH: EVQLVESGGGLVQPGGSLRLSCSASGFTFSRYAMYWVRQAPGKGLEYVSAISSDGGSTYDADSVKGRFTISRANSKNTLYLQMSSLRAEDTAVYYCVKGLRELLYYYYGMDVWGQGTTVTVSS
VL: DIQMTQSPSSLSASVGDRVTITCRAGQSISSFLNWYQQKPGKAPKLLIYAASSLQSGVPSRFSGSGSGTDFTLTISSLQPEDFATYYCQQSYITPFTFGPGTKVDIKR
B6: mAb15161 (antibody, V domains shown)
VH: EVQLVESGGGLVQPGGSLRLSCAASGFTFSSYEMNWVRQAPGKGLEWVSYISSSGSILYYADSVKGRFTASRDNAKNSLYLQMNSLRAEDTGVYYCARREYQLLRPFEFWGQGTLVTVSS
VL: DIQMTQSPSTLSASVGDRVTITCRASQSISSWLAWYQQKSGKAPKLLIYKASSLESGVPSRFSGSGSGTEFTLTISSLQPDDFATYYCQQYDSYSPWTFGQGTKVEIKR
B7: mAb15158 (antibody, V domains shown)
VH: EVQLVESGGGLVQPGGSLRLSCAASGFSFSSNWMSWVRQAPGKGLEWVGNINQDGSEKYYVDSVEGRFTISRDNAKKSLYLQMNSLRAEDTAVYYCARDLGVLWFGDFVDWGQGALVTVSS
VL: DIQMTQSPSSLSASVGDRVTITCRASQAISNSLAWYQQKPGKAPKLLLYAASTLESGVPSRFSGSGSGTDYTLTISSLQPEDFATYYCLQYYGSPRTFGQGTKVEIKR
B8: mAb14256 (antibody, V domains shown)
VH: QVQLQESGPGLVKPSETLSLTCTVSGGSISSHYWSWIRQPPGKGLEWIGYIYYSGSSNYNPSLKSRVTISVDTSKNQFSLKLNSVTAADTAVYYCARHYDILTGFDWFDPWGQGTLVTVSS
VL: QSVLTQPPSVSGAPGQRVTISCTGSSSNIGTHYDVHWYQQLPGTAPKLLIYGNSNRPSGVPDRFSGSKSGTSASLAITGLQAEDEADYYCQSFDNSLTAPYVFGTGTKVTVLG
B9: mAb14230 (antibody, V domains shown)
VH: EVQLVESGGGLIQPGRSLRLSCAASGFTFDDYAMHWVRQAPGKGLEWVSGISWNSVSIDYADSVKGRFTISRDNAKNSLYLQMTSLTVEDTALYYCAKAFGYETLTGSDYFAYWGPGTLVTVSS
VL: EIVLTQSPGTLSLSPGERATLSCRASQTVISTYLAWYQQKPGQSPRLLIYGASSRATGIPDRFSGSGSGTDFTLTISRLEPEDFAVYYCQQYGSSPQLTFGGGTKVEIKR
B10: mAb14280 (antibody, V domains shown)
VH: QVQLVQSGAEVKKPGASVRVSCKASGYTFTGNYIHWVRQAPGQGLEWMAWINPNSGGKNYAQKFQGRVTLTRDTSVNTAYMELSRLRSDDTAMYYCARDVNYNILTGPGGLWGQGTLVTVSS
VL: QSALTQPPSASGSPGQSVTISCTGTSSDVGGYNFVSWYQQHPGKAPKLMIYEVSKRPSGVPDRFSGSKSGNTASLTVSGLQAEDEADYYCSSYAGSNNFVFGTGTKVTVLG
B11: mAb15163 (antibody, V domains shown)
VH: EVQLVETGGGLIQPGESLRLSCAASGFIVSTNYMNWVRQAPGKGLEWVSVIYRGGSTYYADSVKGRFTISRDNSKNTLFLQMNSLRAEDTAVYYCARGHEDFDYDTPASGAFDIWGQGTMVTVSS
VL: B10 VL with Y32H, F34Y, L48V, N98K
B12: mAb15159 (antibody, V domains shown)
VH: EVQLVESGGGLVQPGGSLRLSCAASGITVSSNYMTWVRQAPGKGLEWVSLIYSGGSTFYADSVRGRFTISRDNSKNTLYLQMNSLRAEDTAVYYCARDLVVYGMDVWGQGTTVTVSS
VL: DIQLTQSPSSLSASVGDRVTITCRASQGISSYLAWYQQKPGKAPKLLIYAASTLQSGVPSRFSGSGSGTDFTLTISSLQPEDFATYYCQHLNSDPHTFGQGTKLEIKR
B13: mAb14292 (antibody, V domains shown)
VH: EVQLVESGGGLVQPGGSLRLSCVASGFAFSTYEMNWVRQAPGKGLEWVSYISSSGSTIYYADSVKGRLTISRDNVKNSLYLQMNSLRVEDTAIYYCARDAIRNNDILTDPATFDPWGQGTLVTVSS
VL: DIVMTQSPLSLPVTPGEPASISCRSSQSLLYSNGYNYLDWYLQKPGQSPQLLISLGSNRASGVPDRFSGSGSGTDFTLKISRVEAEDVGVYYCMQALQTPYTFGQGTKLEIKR
B14: mAb14285 (antibody, V domains shown)
VH: QVQLVQSGAEVKKPGASVKVSCKASGYTFTGYFIHWVRQAPGQGLEWMGWISPISGGTNYAQKFQGRVTVTRDTSITTAYMELSRLTSDDTAVYHCAREGGTWKGDFDYWGQGTLVTVSS
VL: QSALTQPASVSGSPGQSITISCTGTSSDVESYNLVSWYQQHPGKAPKLMIYEGSKRPSGVSNRFSGSKSGNTASLTISGLQAEDEADYYCSSYAGSSTWVFGGGTKLTVLG
B15: mAb15164 (antibody, V domains shown)
VH: EVQLVESGGGLVQPGGSLRLSCAASGFAVSSNYMTWVRQAPGKGLEWVATIYSGDSTYYADSVKGRFTISRHNSKNTLSLQMNSLRADDTAIYYCARLSGVLSGTYNGAFDIWGQGTMVTVSS
VL: B14 VL with V29F, E30G, S31N, L34I, K44Q, L48V, S54N, N71H
B16: mAb15156 (antibody, V domains shown)
VH: QLQLQESGPGLVKSSETLSLTCTVSASITGSTYYWGWIRQPPGKGLEWIGSIYYSGTTYYKASLKSRVTISVDTSKNQFSLKLTSVTVADTAVYYCVSHLLGNYHKYGMDVWGQGTTVTVSS
VL: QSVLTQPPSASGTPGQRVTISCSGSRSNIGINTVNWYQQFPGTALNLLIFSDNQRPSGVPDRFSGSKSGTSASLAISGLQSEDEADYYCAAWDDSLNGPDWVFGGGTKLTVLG

target: T1, SARS-CoV2 Spike ecto foldon Trimer expressed with a C-terminal myc-myc-hexahistidine (SARS-CoV-2, UniProt P0DTC2 14-1213); experiment: SPR Biacore, mAb captured by anti-hFc, 37C
T1 construct: extracellular domain

Binder | Kd [nM] | koff [s⁻¹] | kon [M⁻¹ s⁻¹] | t½ [h]
B1 | 0.425 | 0.000187 | 440000 | 1.03
B2 | 0.177 | 0.000133 | 751000 | 1.45
B3 | 0.102 | 7.16e-05 | 699000 | 2.69
B4 | 0.141 | 0.00024 | 1.7e+06 | 0.803
B5 | 0.132 | 0.000167 | 1.26e+06 | 1.15
B6 | 0.0616 | 9.14e-05 | 1.48e+06 | 2.11
B7 | 0.0541 | 4.07e-05 | 758000 | 4.73
B8 | 0.304 | 0.000242 | 796000 | 0.795
B9 | 0.0991 | 8.97e-05 | 906000 | 2.14
B10 | 0.029 | 2.86e-05 | 985000 | 6.73
B11 | 0.0364 | 4.85e-05 | 1.35e+06 | 3.97
B12 | 0.0686 | 3.22e-05 | 467000 | 5.99
B13 | 11.5 | 0.00682 | 592000 | 0.0283
B14 | 0.0359 | 4.18e-05 | 1.16e+06 | 4.61
B15 | 0.0777 | 0.000138 | 1.78e+06 | 1.4
B16 | 0.112 | 0.000212 | 1.89e+06 | 0.908

target: T1, SARS-CoV2 Spike ecto foldon Trimer …; experiment: SPR Biacore, mAb captured by anti-hFc, 25C

Binder | Kd [nM] | koff [s⁻¹] | kon [M⁻¹ s⁻¹] | t½ [h]
B1 | 0.648 | 6.79e-05 | 105000 | 2.83
B2 | 0.195 | 0.000149 | 763000 | 1.29
B3 | 0.0775 | 5.48e-05 | 707000 | 3.51
B4 | 0.308 | 9.28e-05 | 302000 | 2.08
B5 | 0.102 | 3.1e-05 | 304000 | 6.21
B6 | 0.049 | 1.38e-05 | 280000 | 14
B7 | 0.153 | 1.4e-05 | 91500 | 13.8
B8 | 0.129 | 0.000189 | 1.47e+06 | 1.02
B9 | 0.0404 | 6.09e-05 | 1.51e+06 | 3.16
B10 | 0.0136 | 2.69e-05 | 1.99e+06 | 7.14
B11 | 0.0562 | 1.15e-05 | 214000 | 16.7
B12 | 0.231 | 2.02e-05 | 87500 | 9.53
B13 | 7.21 | 0.00421 | 584000 | 0.045
B14 | 0.017 | 3.98e-05 | 2.34e+06 | 4.84
B15 | 0.0865 | 2.58e-05 | 298000 | 7.47
B16 | 0.193 | 6.61e-05 | 342000 | 2.91
